{
  "source": "patent US10568344B2",
  "about": "“Methods of improving animal performance” (Novozymes A/S, priority 2015, dated 2020)",
  "molecules": {"B1": {"name": "SEQ ID NO: 1: mature amino acid sequence of a wild type GH25 lysozyme from Acremonium alcalophilum with N-terminal SPIRR (protein)", "chain": "SPIRRRIPGFDISGWQPTTDFARAYANGDRFVYIKATEGTTFKSSAFSRQYTGATQNGFIRGAYHFAQPAASSGAAQARYFASNGGGWSKDGITLPGALDIEYNPNGATCYGLSQSAMVNWIEDFVTTYHGITSRWPVIYTTTDWWTQCTGNSNRFANRCPLWIARYASSVGTLPNGWGFYTFWQYNDKYPQGGDSNWFNGDASRLRALANGD", "modifications": "Wild type sequence with N-terminal SPIRR"}},
  "key": {"[1]": {"assay": "In vivo broiler trial 2, growth performance", "set-up": "species or system male broiler chickens", "description": "No additional enzymes (e.g. phytase) were added to the feed. The experimental diets (Starter and Grower) were based on soybean meal, wheat and rye (12%) as main ingredients (Table 6). The diets were formulated to contain 222 g crude protein and 12.5 MJ/kg MEN for the starter period and 204 g crude protein and 12.7 MJ/kg MEN for the grower period."}, "[2]": {"assay": "In vivo broiler trial 4, FCR and EPEF", "set-up": "species or system male broiler type chickens (Cobb 500)", "settings": "50 mg/kg in Grower feed (Days 8-24)", "description": "Diet composition was designed to meet or exceed the requirements except for metabolisable energy, phosphorus and calcium (tables 15 and 16). […] During the Grower period, the lysozyme (SEQ ID NO: 1) was applied at […] as a liquid formulation (table 14). There were no other enzymes or any coccidiostats supplemented in the diets. The diets were prepared at a […] specialised in experimental diets and the mash feed was offered ad libitum to the birds. At the day of hatching, male day-old broiler type chickens (male byproducts of female parental line of Cobb 500) were obtained from Cobb Germany […] GmbH, […] (Brö[…] birds were randomly assigned in groups of 22 chickens to the experimental pens ( 3 sq·m.) equipped with a bell drinker and a round feeder. After 7 days of equal rearing, number of birds per pen was reduced to 20, selecting against obviously light birds. Recorded body weights (BW) were immediately statistically evaluated. In order to ensure similar average BW between treatments and variation within treatments statistical evaluation of BW-placement of chicks was coordinated in such a way as to minimize within-pen variation and between-treatment differences of average BW. Feed and water were freely available, feed consumption was recorded. Initial bedding consisted of wood shavings. Caked excreta patches around the drinkers were removed several times during the experimental period and more bedding material was added when required. Light and temperature regimes were managed according to the breeder's recommendations. Birds were weighed (groupwise) at placement and at the end of each fattening period. At the final weighing, birds were weighed individually. Feed offered was recorded continuously upon refilling the feeders; the feed remaining in the feeders was recorded at the end of each fattening period. […] Daily BW gain per bird (BW gain) and feed conversion ratio (FCR) were calculated as follows: BWgain: difference between BW per bird at the end and at the beginning of the study divided by the number of days FCR: total feed consumption of a pen divided by total BW gain of that pen (total BW gain=total BW at the end+weight of removals and losses-total BW at the beginning) The European Production Efficacy Factor (EEF) was calculated as follows: EEF=[(liveability,%×BWgain,kg)/(Study duration in days×FCR)]×100. Statistical Analysis Data of performance was analysed using a bi-factorial ANOVA (procedure PROC GLM) with the fixed effects of lysozyme supplementation as well as their interaction. Differences were investigated between the various levels of each main factor (Tukey test), accounting for multiple comparisons where appropriate."}, "Bacteroidales": {"tested_on": "Bacteroidales", "assay": "Microbiota analysis of broiler trial 4 (16S rRNA), Bacteroidales", "assay_type": "in vivo, chicken", "set-up": "key to Observed shift compared to the control group, Significance: Significant change (+++), padj < 0.05; Numerical change (+)", "settings": "50 ppm"}, "[3]": {"settings": "Grower (d 22-36), 6.25 mg/kg feed"}, "[4]": {"settings": "Grower (d 22-36), 12.5 mg/kg feed"}, "[5]": {"settings": "Grower (d 22-36), 25 mg/kg feed"}, "[6]": {"settings": "Starter (d 1-22), 6.25 mg/kg feed"}, "[7]": {"settings": "Starter (d 1-22), 12.5 mg/kg feed"}, "[8]": {"settings": "Starter (d 1-22), 25 mg/kg feed"}, "[9]": {"settings": "Whole period (d 1-36), 6.25 mg/kg feed"}, "[10]": {"settings": "Whole period (d 1-36), 12.5 mg/kg feed"}, "[11]": {"settings": "Whole period (d 1-36), 25 mg/kg feed"}},
  "note": "Marks after values point to notes of the source that are not given here.",
  "data": [
    {"molecule": "B1", "values": [
      {"measurement": "FCR", "setting": "[1]; [3]", "result": "1.753^a"},
      {"measurement": "FCR, Relative to C (%)", "setting": "[1]; [3]", "result": 101.9, "unit": "%"},
      {"measurement": "Feed intake", "setting": "[1]; [3]", "result": 2705, "unit": "g/b"},
      {"measurement": "Feed intake, Relative to C (%)", "setting": "[1]; [3]", "result": 99.1, "unit": "%"},
      {"measurement": "Weight gain", "setting": "[1]; [3]", "result": 1545, "unit": "g/b"},
      {"measurement": "Weight gain, Relative to C (%)", "setting": "[1]; [3]", "result": 97.4, "unit": "%"},
      {"measurement": "FCR", "setting": "[1]; [4]", "result": "1.692^a"},
      {"measurement": "FCR, Relative to C (%)", "setting": "[1]; [4]", "result": 98.3, "unit": "%"},
      {"measurement": "Feed intake", "setting": "[1]; [4]", "result": 2671, "unit": "g/b"},
      {"measurement": "Feed intake, Relative to C (%)", "setting": "[1]; [4]", "result": 97.8, "unit": "%"},
      {"measurement": "Weight gain", "setting": "[1]; [4]", "result": 1581, "unit": "g/b"},
      {"measurement": "Weight gain, Relative to C (%)", "setting": "[1]; [4]", "result": 99.7, "unit": "%"},
      {"measurement": "FCR", "setting": "[1]; [5]", "result": "1.686^a"},
      {"measurement": "FCR, Relative to C (%)", "setting": "[1]; [5]", "result": 98, "unit": "%"},
      {"measurement": "Feed intake", "setting": "[1]; [5]", "result": 2753, "unit": "g/b"},
      {"measurement": "Feed intake, Relative to C (%)", "setting": "[1]; [5]", "result": 100.8, "unit": "%"},
      {"measurement": "Weight gain", "setting": "[1]; [5]", "result": 1633, "unit": "g/b"},
      {"measurement": "Weight gain, Relative to C (%)", "setting": "[1]; [5]", "result": 102.9, "unit": "%"},
      {"measurement": "FCR", "setting": "[1]; [6]", "result": "1.403^ab"},
      {"measurement": "FCR, Relative to C (%)", "setting": "[1]; [6]", "result": 101.8, "unit": "%"},
      {"measurement": "Feed intake", "setting": "[1]; [6]", "result": "1551^ab g/b"},
      {"measurement": "Feed intake, Relative to C (%)", "setting": "[1]; [6]", "result": 105.4, "unit": "%"},
      {"measurement": "Weight gain", "setting": "[1]; [6]", "result": 1106, "unit": "g/b"},
      {"measurement": "Weight gain, Relative to C (%)", "setting": "[1]; [6]", "result": 103.6, "unit": "%"},
      {"measurement": "FCR", "setting": "[1]; [7]", "result": "1.339^b"},
      {"measurement": "FCR, Relative to C (%)", "setting": "[1]; [7]", "result": 97.1, "unit": "%"},
      {"measurement": "Feed intake", "setting": "[1]; [7]", "result": "1403^d g/b"},
      {"measurement": "Feed intake, Relative to C (%)", "setting": "[1]; [7]", "result": 95.4, "unit": "%"},
      {"measurement": "Weight gain", "setting": "[1]; [7]", "result": 1049, "unit": "g/b"},
      {"measurement": "Weight gain, Relative to C (%)", "setting": "[1]; [7]", "result": 98.3, "unit": "%"},
      {"measurement": "FCR", "setting": "[1]; [8]", "result": "1.332^b"},
      {"measurement": "FCR, Relative to C (%)", "setting": "[1]; [8]", "result": 96.6, "unit": "%"},
      {"measurement": "Feed intake", "setting": "[1]; [8]", "result": "1434^cd g/b"},
      {"measurement": "Feed intake, Relative to C (%)", "setting": "[1]; [8]", "result": 97.4, "unit": "%"},
      {"measurement": "Weight gain", "setting": "[1]; [8]", "result": 1076, "unit": "g/b"},
      {"measurement": "Weight gain, Relative to C (%)", "setting": "[1]; [8]", "result": 100.9, "unit": "%"},
      {"measurement": "FCR", "setting": "[1]; [9]", "result": "1.604^a"},
      {"measurement": "FCR, Relative to C (%)", "setting": "[1]; [9]", "result": 101.6, "unit": "%"},
      {"measurement": "Feed intake", "setting": "[1]; [9]", "result": 4249, "unit": "g/b"},
      {"measurement": "Feed intake, Relative to C (%)", "setting": "[1]; [9]", "result": 101.4, "unit": "%"},
      {"measurement": "Weight gain", "setting": "[1]; [9]", "result": 2651, "unit": "g/b"},
      {"measurement": "Weight gain, Relative to C (%)", "setting": "[1]; [9]", "result": 99.9, "unit": "%"},
      {"measurement": "FCR", "setting": "[1]; [10]", "result": "1.548^bc"},
      {"measurement": "FCR, Relative to C (%)", "setting": "[1]; [10]", "result": 98.1, "unit": "%"},
      {"measurement": "Feed intake", "setting": "[1]; [10]", "result": 4069, "unit": "g/b"},
      {"measurement": "Feed intake, Relative to C (%)", "setting": "[1]; [10]", "result": 97.1, "unit": "%"},
      {"measurement": "Weight gain", "setting": "[1]; [10]", "result": 2630, "unit": "g/b"},
      {"measurement": "Weight gain, Relative to C (%)", "setting": "[1]; [10]", "result": 99.1, "unit": "%"},
      {"measurement": "FCR", "setting": "[1]; [11]", "result": "1.543^c"},
      {"measurement": "FCR, Relative to C (%)", "setting": "[1]; [11]", "result": 97.8, "unit": "%"},
      {"measurement": "Feed intake", "setting": "[1]; [11]", "result": 4181, "unit": "g/b"},
      {"measurement": "Feed intake, Relative to C (%)", "setting": "[1]; [11]", "result": 99.8, "unit": "%"},
      {"measurement": "Weight gain", "setting": "[1]; [11]", "result": 2709, "unit": "g/b"},
      {"measurement": "Weight gain, Relative to C (%)", "setting": "[1]; [11]", "result": 102.1, "unit": "%"},
      {"measurement": "Improvement of FCR compared to the control diet", "setting": "[1]; day 1 to day 36, 12.5 mg/kg", "result": 1.9, "unit": "%"},
      {"measurement": "Improvement of FCR compared to the control diet", "setting": "[1]; day 1 to day 36, 25 mg/kg", "result": 2.2, "unit": "%"},
      {"measurement": "Improvement of weight gain compared to C", "setting": "[1]; day 1 to day 36, 25 mg/kg", "result": 2.0, "unit": "%"},
      {"measurement": "Improvement of FCR compared to the control diet", "setting": "[1]; grower period, 25 mg/kg", "result": 2.0, "unit": "%"},
      {"measurement": "Improvement of weight gain compared to the control diet", "setting": "[1]; grower period, 25 mg/kg", "result": 2.9, "unit": "%"},
      {"measurement": "Improvement of weight gain compared to the control diet", "setting": "[1]; starter period, 6.25 mg/kg", "result": 3.6, "unit": "%"},
      {"measurement": "Improvement of FCR compared to the control diet", "setting": "[1]; starter period, 12.5 mg/kg", "result": 2.9, "unit": "%"},
      {"measurement": "Improvement of FCR compared to the control diet", "setting": "[1]; starter period, 25 mg/kg", "result": 3.4, "unit": "%"},
      {"measurement": "EPEF", "setting": "[2]", "result": 327},
      {"measurement": "FCR", "setting": "[2]", "result": 1.56},
      {"measurement": "EPEF % improvement", "setting": "[2]; vs no lysozyme", "result": 3.8, "unit": "%"},
      {"measurement": "EPEF change", "setting": "[2]; vs no lysozyme", "result": 12},
      {"measurement": "FCR % improvement", "setting": "[2]; vs no lysozyme", "result": 1.9, "unit": "%"},
      {"measurement": "FCR change", "setting": "[2]; vs no lysozyme", "result": 0.03},
      {"measurement": "Observed shift compared to the control group, Significance", "setting": "Bacteroidales; Order level (Bacteroidales)", "result": "+"},
      {"measurement": "Bacteroidales Change vs control", "setting": "Bacteroidales; order level", "result": "−15.8551"},
      {"measurement": "Bacteroidales Ratio vs control", "setting": "Bacteroidales; order level", "result": 0.7538},
      {"measurement": "Bacteroidales abundance, Lysozyme treatment", "setting": "Bacteroidales; order level, ceca content", "result": 48.5437}
    ]}
  ]
}
